The text below walks through data of the Human Domainome abundance scans (Beltran et al. 2025).

± gives the uncertainty stated by the source.

Sequences and labels used below:
B1: POU domain, class 5, transcription factor 1, residues 134 to 212; numbered along this chain, Q01860 (parent)
chain: EESQDIKALQKELEQFAKLLKQKRITLGYTQADVGLTLGVLFGKVFSQTTICRFEALQLSFKNMCKLRPLLQKWVEEAD

This data set covers variants of B1. In words: abundance fitness (aPCA) (normalised: wild type 0, dead -1); higher = more abundant; growth selection in yeast, the domain comes from the species named. The note with it: Homo sapiens.
With F46I, the abundance fitness was 0.107 ± 0.24.
As for F46A, the abundance fitness was -0.147 ± 0.13.
As for F46L, the abundance fitness came to 0.211 ± 0.083.
In the case of F46T it was 0.025 ± 0.2; in that of F16L, -0.133 ± 0.16; in that of F16E, -0.438 ± 0.39.
In the case of Q72A it was -0.354 ± 0.13; in that of Q72E, 0.342 ± 0.091.
With Q72V, the abundance fitness is -0.337 ± 0.13.
For the variant Q72G, the abundance fitness is -0.302 ± 0.11.
Take Q72M: the abundance fitness is -0.31 ± 0.16.
In the case of P69G it was -0.085 ± 0.13.
Turning to P69Q, the abundance fitness was -0.618 ± 0.43.
In the case of G39E it was -0.469 ± 0.17; in that of G39T, -0.613 ± 0.28.
Regarding G39R, the abundance fitness was -0.318 ± 0.095.
Y29I: the abundance fitness was -0.771 ± 0.47.
Consider Y29F, for which the abundance fitness was -0.761 ± 0.47.
With Y29A, the abundance fitness is -0.41 ± 0.13.
Consider Y29C, for which the abundance fitness is -0.64 ± 0.32.
Take L38E: the abundance fitness is -0.701 ± 0.24.
Consider L38G, for which the abundance fitness is -0.832 ± 0.18.
In the case of L38R it was -0.511 ± 0.13.
In the case of L38S it was -0.37 ± 0.17; in that of L38H, -0.313 ± 0.38.
In the case of T30L it was -0.853 ± 0.27; in that of T30Q, -0.664 ± 0.3.
Take L36M: the abundance fitness turned out to be 0.168 ± 0.15.
Consider L36S, for which the abundance fitness is 0.105 ± 0.088.
Take L36C: the abundance fitness is 0.111 ± 0.16.
As for L36V, the abundance fitness amounted to 0.002 ± 0.065.
Consider L36Q, for which the abundance fitness was 0.283 ± 0.14.
In the case of L36A it was 0.273 ± 0.065.
L36R: the abundance fitness was 0.235 ± 0.059.
In the case of F42S it was -0.055 ± 0.075; in that of F42G, -0.091 ± 0.049; in that of L57P, -0.005 ± 0.22.
The result for L57A reads -0.58 ± 0.22.
Consider K66D, for which the abundance fitness is -0.477 ± 0.3.
As to K44M, the abundance fitness is -0.374 ± 0.39.
For the variant K44E, the abundance fitness was found to be 0.016 ± 0.077.
In the case of K44N it was -0.26 ± 0.23.
For G35P, the abundance fitness is -0.452 ± 0.29.
In the case of G35V it was -0.743 ± 0.3.
As for I51G, the abundance fitness was -0.25 ± 0.15.
As for I51R, the abundance fitness was -0.575 ± 0.34.
For the variant L13I, the abundance fitness worked out at 0.099 ± 0.27.
For the variant L13N, the abundance fitness was -0.252 ± 0.19.
As to K21R, the abundance fitness was -0.191 ± 0.12.
Consider Q58G, for which the abundance fitness is -0.573 ± 0.25.
The result for Q58L reads -0.43 ± 0.3; that for K62G, -0.146 ± 0.083.
In the case of K62Q, the abundance fitness turned out to be 0.046 ± 0.24.
The result for K62L reads -0.579 ± 0.27; that for C65L, 0.14 ± 0.077; that for C65V, -0.178 ± 0.097.
In the case of C65N it was -0.343 ± 0.29; in that of W74R, -0.734 ± 0.27; in that of K7P, -0.124 ± 0.099.
As for K7I, the abundance fitness was -0.391 ± 0.22.
The result for K7L reads -0.073 ± 0.061; that for L59A, -0.81 ± 0.35.
The result for L59R reads -0.561 ± 0.2.
The result for L59V reads -0.7 ± 0.25.
As for L59S, the abundance fitness is -0.453 ± 0.22.
In the case of L27A it was -0.648 ± 0.21; in that of L27W, -0.185 ± 0.11.
In the case of L27Y it was -0.358 ± 0.4; in that of L27N, -0.429 ± 0.36.
In the case of L27S it was -0.724 ± 0.25.
For the variant A78E, the abundance fitness is -0.06 ± 0.23.
As to A78G, the abundance fitness was -0.304 ± 0.12.
As for A78C, the abundance fitness was -0.36 ± 0.35.
As to E1R, the abundance fitness came to 0.064 ± 0.14.
For Q15K, the abundance fitness is -0.631 ± 0.43.
Consider Q15G, for which the abundance fitness was 0.008 ± 0.086.
In the case of S60W it was -0.381 ± 0.31; in that of S60G, -0.268 ± 0.09.
For the variant S60C, the abundance fitness was -0.449 ± 0.47.
Regarding S60V, the abundance fitness is -0.843 ± 0.25.
In the case of Q4L it was -0.067 ± 0.09; in that of Q4N, -0.253 ± 0.32; in that of Q4P, -0.135 ± 0.12.
Regarding Q4S, the abundance fitness was -0.258 ± 0.13.
Regarding Q4G, the abundance fitness was -0.064 ± 0.07.
For the variant Q4M, the abundance fitness is -0.118 ± 0.18.
Consider L20R, for which the abundance fitness is -0.299 ± 0.14.
The result for L20G reads -0.801 ± 0.23; that for L20A, -0.704 ± 0.27; that for I6E, -0.452 ± 0.17.
The result for I6C reads -0.417 ± 0.43.
The result for I6T reads 0.195 ± 0.12.
Turning to E12S, the abundance fitness is -0.094 ± 0.11.
With E12D, the abundance fitness was -0.357 ± 0.47.
E12Q: the abundance fitness was -0.185 ± 0.17.
As for E12F, the abundance fitness came out at 0.341 ± 0.3.
Turning to T26K, the abundance fitness was -0.414 ± 0.36.
The result for T26R reads 0.129 ± 0.14; that for K18R, -0.222 ± 0.099; that for K18M, 0.052 ± 0.15.
For the variant K18L, the abundance fitness was -0.091 ± 0.11.
K18S: the abundance fitness was found to be 0.192 ± 0.13.
As for M64C, the abundance fitness is -0.739 ± 0.33.
In the case of M64A it was -0.251 ± 0.11; in that of M64F, -0.8 ± 0.47.
M64T: the abundance fitness is -0.496 ± 0.14.
In the case of K73L it was -0.289 ± 0.11; in that of K73I, -0.448 ± 0.34.
The result for K73Q reads -0.1 ± 0.14; that for K73T, -0.083 ± 0.12; that for K73C, -0.397 ± 0.17.
As to A8G, the abundance fitness is -0.148 ± 0.14.
A8Q: the abundance fitness stood at 0.182 ± 0.3.
The result for A8P reads 0.697 ± 0.5.
As for A8C, the abundance fitness worked out at 0.222 ± 0.21.
The result for A32W reads -0.682 ± 0.29; that for A32C, -0.229 ± 0.32.
A32G: the abundance fitness is -0.235 ± 0.1.
Consider T50E, for which the abundance fitness was 0.231 ± 0.11.
As to L9Q, the abundance fitness worked out at 0.106 ± 0.12.
L9I: the abundance fitness is -0.331 ± 0.4.
In the case of L9S it was 0.136 ± 0.078; in that of L9V, 0.044 ± 0.076; in that of G28L, -0.76 ± 0.22.
The result for G28V reads -0.787 ± 0.19; that for G28M, -0.465 ± 0.24; that for G28S, -0.839 ± 0.32.
In the case of T49V it was -0.272 ± 0.097; in that of T49Q, 0.206 ± 0.096; in that of T49D, 0.044 ± 0.16.
For T49P, the abundance fitness is -0.281 ± 0.23.
For T49G, the abundance fitness is -0.243 ± 0.082.
In the case of T49C it was -0.524 ± 0.27.
In the case of T49L, the abundance fitness is -0.418 ± 0.12.
K11A: the abundance fitness was -0.201 ± 0.14.
The result for K11E reads -0.031 ± 0.11.
The result for K11T reads -0.388 ± 0.3; that for K11V, -0.21 ± 0.12; that for L19R, -0.284 ± 0.15.
E14C: the abundance fitness was -0.476 ± 0.24.
Regarding E14M, the abundance fitness is -0.307 ± 0.22.
The result for E14S reads -0.358 ± 0.13; that for E14A, 0.143 ± 0.085.
As to A17P, the abundance fitness is -0.357 ± 0.45.
E55R: the abundance fitness was -0.607 ± 0.16.
The result for E55V reads -1.04 ± 0.41.
Turning to C52D, the abundance fitness is 0.203 ± 0.3.
For C52K, the abundance fitness stood at 0.356 ± 0.25.
In the case of C52L it was -0.07 ± 0.31; in that of C52R, 0.47 ± 0.18.
In the case of C52A it was 0.424 ± 0.15; in that of C52N, 0.175 ± 0.46.
The result for L67A reads -0.612 ± 0.16.
On to L67Q, for which the abundance fitness was -0.756 ± 0.39.
Take L67T: the abundance fitness is -0.494 ± 0.29.
In the case of L67N it was 0.553 ± 0.28; in that of D79C, -0.509 ± 0.35.
The result for D79S reads -0.374 ± 0.22; that for D79E, -0.067 ± 0.21.
In the case of V40G it was -0.01 ± 0.076; in that of V40I, 0.038 ± 0.27; in that of V40C, 0.354 ± 0.23.
With V40S, the abundance fitness was -0.026 ± 0.14.
For V40D, the abundance fitness is -0.621 ± 0.44.
On to G43N, for which the abundance fitness is -0.341 ± 0.37.
Regarding A56M, the abundance fitness turned out to be 0.159 ± 0.16.
In the case of A56P, the abundance fitness is -0.345 ± 0.37.
